Data: article PMC9968394

Key:
Experiment in all cases: SPR; Biacore; anti-OGT VNARs diluted to 100 nM; recombinant ncOGT in PBS at 50, 100, 200, 400 and 800 nM introduced successively; binding 120 s, dissociation 200 s in PBS; Langmuir model fit; who was immobilised is not said
[1] = biological target: anti-OGT VNAR 4G2 (Chiloscyllium plagiosum (whitespotted bambooshark))
[2] = biological target: anti-OGT VNAR 2D9 (Chiloscyllium plagiosum (whitespotted bambooshark))
[3] = biological target: anti-OGT VNAR 3F7 (Chiloscyllium plagiosum (whitespotted bambooshark))

Kd [1]: 89.7 nM
koff [1]: 0.00076 s⁻¹
Kd [2]: 35.5 nM
koff [2]: 0.000675 s⁻¹
kon [2]: 19000 M⁻¹ s⁻¹
Kd [3]: 53.4 nM
koff [3]: 0.00106 s⁻¹
kon [3]: 19800 M⁻¹ s⁻¹
B1: recombinant ncOGT protein (O-GlcNAc transferase) (enzyme)
chain: MASSVGNVADSTEPTKRMLSFQGLAELAHREYQAGDFEAAERHCMQLWRQEPDNTGVLLLLSSIHFQCRRLDRSAHFSTLAIKQNPLLAEAYSNLGNVYKERGQLQEAIEHYRHALRLKPDFIDGYINLAAALVAAGDMEGAVQAYVSALQYNPDLYCVRSDLGNLLKALGRLEEAKACYLKAIETQPNFAVAWSNLGCVFNAQGEIWLAIHHFEKAVTLDPNFLDAYINLGNVLKEARIFDRAVAAYLRALSLSPNHAVVHGNLACVYYEQGLIDLAIDTYRRAIELQPHFPDAYCNLANALKEKGSVAEAEDCYNTALRLCPTHADSLNNLANIKREQGNIEEAVRLYRKALEVFPEFAAAHSNLASVLQQQGKLQEALMHYKEAIRISPTFADAYSNMGNTLKEMQDVQGALQCYTRAIQINPAFADAHSNLASIHKDSGNIPEAIASYRTALKLKPDFPDAYCNLAHCLQIVCDWTDYDERMKKLVSIVADQLEKNRLPSVHPHHSMLYPLSHGFRKAIAERHGNLCLDKINVLHKPPYEHPKDLKLSDGRLRVGYVSSDFGNHPTSHLMQSIPGMHNPDKFEVFCYALSPDDGTNFRVKVMAEANHFIDLSQIPCNGKAADRIHQDGIHILVNMNGYTKGARNELFALRPAPIQAMWLGYPGTSGALFMDYIITDQETSPAEVAEQYSEKLAYMPHTFFIGDHANMFPHLKKKAVIDFKSNGHIYDNRIVLNGIDLKAFLDSLPDVKIVKMKCPDGGDNADSSNTALNMPVIPMNTIAEAVIEMINRGQIQITINGFSISNGLATTQINNKAATGEEVPRTIIVTTRSQYGLPEDAIVYCNFNQLYKIDPSTLQMWANILKRVPNSVLWLLRFPAVGEPNIQQYAQNMGLPQNRIIFSPVAPKEEHVRRGQLADVCLDTPLCNGHTTGMDVLWAGTPMVTMPGETLASRVAASQLTCLGCLELIAKNRQEYEDIAVKLGTDLEYLKKVRGKVWKQRISSPLFNTKQYTMELERLYLQMWEHYAAGNKPDHMIKPVEVTESA
